Consider two molecules from article PMC3320612, “Structural Basis of Cytotoxicity Mediated by the Type III Secretion Toxin ExoU from Pseudomonas aeruginosa” (PLoS Pathogens, 2012).

“And” between values parts separate entries of the source, which are not always exact repeats. Equal entries are not always repeated.

The target of data set [1] is ExoU(30–687) (Pseudomonas aeruginosa (clinical strain, GESPA 1999 collection)) (UniProt O34208). The data set can be described thus: native MS; purified ExoU∶SpcU complex, 15 µM in 20 mM ammonium acetate, electrospray, positive mode, Micro-TOF-Q.
Data set [2] deals with the molecule itself. The data set can be described thus: crystal structure; co-expressed, co-purified ExoU(30–687)∶SpcU(1–127) complex; crystals in 0.1 M KNO3, 20% PEG 3350; SAD on the selenium edge, C2 cell, 2.94 Å.

For the molecule “SpcU(1–127) (from UniProt O66100 1-127) (domain or fragment)”, in data set [1], the stoichiometry N (SpcU per ExoU (printed as ExoU∶SpcU)) was 1 and 2.

B1: SpcU(1–127) (domain or fragment)
chain: MIDTWLAQWGLRLPSSNDATLRLQPAEGPELVMERLEGGWLFVVELGLVPSGLPLGVILQLLQVNSPFSSLAPVKLAADDAGRLVLWAEARDGVDDVDALNRLHDRLREGHSRLVPLLEPTGELVPA
modifications: selenomethionine in the crystals (SAD on the selenium edge)
notes: SpcU, type IA T3SS chaperone of ExoU, Pseudomonas aeruginosa; full length is 1-137; stop codon introduced after residue 127; amplified from a clinical strain (GESPA 1999 collection); also called chaperone SpcU
In the case of B1, the binding result in data set [2] is recorded as “binds”.
